Results on 1 substance are retold here after article PMC5506376.

The test system of the series is CC(=O)N[C@H]1[C@@H](OP(=O)(O)OP(=O)(O)OC[C@H]2O[C@@H](n3ccc(=O)[nH]c3=O)[C@H](O)[C@@H]2O)O[C@H](C)[C@@H](NC(C)=O)[C@@H]1O. In words: purified protein. The following applies: Mg2+.

Broadly, the Km is the substrate concentration at which the rate is half of its maximum. Take “PglC (Campylobacter jejuni subsp. jejuni NCTC 11168 = ATCC 700819)”: the Michaelis-Menten constant (Km) is 7.2 ± 1.1 µM.
